According to patent US20150315296A1 (Hoffmann-La Roche, published 2015):

Key:
human VEGFA-121-His = biological target: T1, human VEGFA-121-His (human, UniProt P15692-9 27-147); assay: SPR (Biacore T200), VEGFA-121-His amine-coupled on C1 chip, antibody in solution, 25 C, 1:1 Langmuir
T1 construct: also called VEFGA-121-His; not shown: His tag
T1 sequence (looked up): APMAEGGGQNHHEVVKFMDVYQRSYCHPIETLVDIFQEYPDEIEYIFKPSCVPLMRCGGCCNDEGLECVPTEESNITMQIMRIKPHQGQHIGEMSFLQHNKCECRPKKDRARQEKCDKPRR
Method: (§1) Binding of indicated antibodies to human VEGFA-121 was investigated by surface plasmon resonance using a BIACORE® T200 instrument (GE Healthcare). Aim for 50 RU of VEFGA-121-His were coupled on a Series S C1 chip (GE Healthcare BR-1005-35) at pH 5.0 by using an amine coupling kit supplied by the GE Healthcare. HBS-N(10 mM HEPES, 150 mM NaCl pH 7.4, GE Healthcare) was used as running buffer during the immobilization procedure. For the following kinetic characterization, sample and running buffer was PBS-T (10 mM phosphate buffered saline including 0.05% Tween20) at pH 7.4. The flow cell was set to 25° C.—and the sample block set to 12° C.—and primed with running buffer twice prior to kinetic characterization.
The association was measured by injection the indicated antibody in various concentrations in solution for 180 sec at a flow of 30 μl/min starting with 100 nM in 1:3 serial dilutions. The dissociation phase was monitored for up to 300 sec and triggered by switching from the sample solution to running buffer. The surface was regenerated by 30 sec washing with a 0.85% H₃PO₄ (phosphoric acid) solution at a flow rate of 30 μl/min Bulk refractive index differences were corrected by subtracting the response obtained from a anti His antibody surface. Blank injections are also subtracted (=double referencing). For calculation of KD and other kinetic parameters the Langmuir 1:1 model was used.

human Ang-2-RBD-Fc = biological target: T2, human Ang-2-RBD-Fc (human, UniProt O15123 275-496, limits assumed); assay: SPR (Biacore T200), antibody captured by anti-human F(ab')2, Ang2-RBD-Fc in solution, 25 C, apparent KD, 1:1 Langmuir
T2 construct: domain: RBD; not shown: Fc part
T2 sequence (looked up): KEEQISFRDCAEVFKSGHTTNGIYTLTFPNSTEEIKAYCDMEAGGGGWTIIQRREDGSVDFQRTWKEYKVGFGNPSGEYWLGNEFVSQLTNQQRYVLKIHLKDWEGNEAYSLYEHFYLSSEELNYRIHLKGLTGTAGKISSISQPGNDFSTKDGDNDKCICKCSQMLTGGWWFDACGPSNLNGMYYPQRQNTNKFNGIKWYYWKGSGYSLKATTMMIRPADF
Method: as §1, with “Ang-2-RBD-Fc” for “VEGFA-121”, “Around 8000 (RU)” for “Aim for 50 RU”, “goat anti human F(ab′)₂ (10 μg/ml anti human F(ab)′₂; Order Code: 28958325; GE Healthcare Bio-Sciences AB, Sweden)” for “VEFGA-121-His”, “CM5” for “C1”, “BR-1005-30)” for “BR-1005-35)”
The bispecific antibody was captured by injecting a 5 nM solution for 25 sec at a flow of 5 μl/min. The association was measured by injection of human Ang2-RBD-Fc in various concentrations in solution for 120 sec at a flow of 30 μl/min starting with 100 nM in 1:3 serial dilutions. The dissociation phase was monitored for up to 180 sec and triggered by switching from the sample solution to running buffer. The surface was regenerated by 60 sec washing with a Glycine pH 2.1 solution at a flow rate of 30 μl/min Bulk refractive index differences were corrected by subtracting the response obtained from a goat anti human F(ab′)₂ surface. Blank injections are also subtracted (=double referencing). For calculation of apparent KD and other kinetic parameters the Langmuir 1:1 model was used.

B1: xFab-Fab<ANG2-VEGF>-uncharged (Ang2VEGF-0452) (bispecific antibody)
light 1: QPGLTQPPSVSVAPGQTARITCGGNNIGSKSVHWYQQKPGQAPVLVVYDDSDRPSGIPERFSGSNSGNTATLTISRVEAGDEADYYCQVWDSSSDHYVFGTGTKVTVLRTVAAPSVFIFPPSDEQLKSGTASVVCLLNNFYPREAKVQWKVDNALQSGNSQESVTEQDSKDSTYSLSSTLTLSKADYEKHKVYACEVTHQGLSSPVTKSFNRGEC
heavy: not shown
light 2: EVQLVESGGGLVQPGGSLRLSCAASGYTFTNYGMNWVRQAPGKGLEWVGWINTYTGEPTYAADFKRRFTFSLDTSKSTAYLQMNSLRAEDTAVYYCAKYPHYYGSSHWYFDVWGQGTLVTVSSASVAAPSVFIFPPSDEQLKSGTASVVCLLNNFYPREAKVQWKVDNALQSGNSQESVTEQDSKDSTYSLSSTLTLSKADYEKHKVYACEVTHQGLSSPVTKSFNRGEC
notes: Bivalent, Fc-free CrossFab(VH-VL)-Fab format
Work on B1 yielded a Kd (human VEGFA-121-His) of 0.35 nM and a Kd (human Ang-2-RBD-Fc) of 3 nM.

B2: xFab2-Fab<ANG2-VEGF>-uncharged (Ang2VEGF-0453) (bispecific antibody)
light 1: QPGLTQPPSVSVAPGQTARITCGGNNIGSKSVHWYQQKPGQAPVLVVYDDSDRPSGIPERFSGSNSGNTATLTISRVEAGDEADYYCQVWDSSSDHYVFGTGTKVTVLRTVAAPSVFIFPPSDEQLKSGTASVVCLLNNFYPREAKVQWKVDNALQSGNSQESVTEQDSKDSTYSLSSTLTLSKADYEKHKVYACEVTHQGLSSPVTKSFNRGEC
heavy: not shown
light 2: EVQLVESGGGLVQPGGSLRLSCAASGYTFTNYGMNWVRQAPGKGLEWVGWINTYTGEPTYAADFKRRFTFSLDTSKSTAYLQMNSLRAEDTAVYYCAKYPHYYGSSHWYFDVWGQGTLVTVSSASVAAPSVFIFPPSDEQLKSGTASVVCLLNNFYPREAKVQWKVDNALQSGNSQESVTEQDSKDSTYSLSSTLTLSKADYEKHKVYACEVTHQGLSSPVTKSFNRGEC
notes: Trivalent, Fc-free (CrossFab VH-VL)2-Fab format
In the case of B2, the Kd (human VEGFA-121-His) is reported as 0.22 nM and the Kd (human Ang-2-RBD-Fc) is reported as 5 nM.

B3: xFab2-Fab<ANG2-VEGF>-charged (Ang2VEGF-0448) (bispecific antibody)
light 1: QPGLTQPPSVSVAPGQTARITCGGNNIGSKSVHWYQQKPGQAPVLVVYDDSDRPSGIPERFSGSNSGNTATLTISRVEAGDEADYYCQVWDSSSDHYVFGTGTKVTVLRTVAAPSVFIFPPSDKRLKSGTASVVCLLNNFYPREAKVQWKVDNALQSGNSQESVTEQDSKDSTYSLSSTLTLSKADYEKHKVYACEVTHQGLSSPVTKSFNRGEC
heavy: not shown
light 2: EVQLVESGGGLVQPGGSLRLSCAASGYTFTNYGMNWVRQAPGKGLEWVGWINTYTGEPTYAADFKRRFTFSLDTSKSTAYLQMNSLRAEDTAVYYCAKYPHYYGSSHWYFDVWGQGTLVTVSSASVAAPSVFIFPPSDEQLKSGTASVVCLLNNFYPREAKVQWKVDNALQSGNSQESVTEQDSKDSTYSLSSTLTLSKADYEKHKVYACEVTHQGLSSPVTKSFNRGEC
notes: as for B2
B3 was tested, and the Kd (human VEGFA-121-His) was 0.18 nM and the Kd (human Ang-2-RBD-Fc) was 4 nM.

B4: xFab-Fab<ANG2-VEGF>-charged (Ang2VEGF-0447) (bispecific antibody)
light 1: QPGLTQPPSVSVAPGQTARITCGGNNIGSKSVHWYQQKPGQAPVLVVYDDSDRPSGIPERFSGSNSGNTATLTISRVEAGDEADYYCQVWDSSSDHYVFGTGTKVTVLRTVAAPSVFIFPPSDKRLKSGTASVVCLLNNFYPREAKVQWKVDNALQSGNSQESVTEQDSKDSTYSLSSTLTLSKADYEKHKVYACEVTHQGLSSPVTKSFNRGEC
heavy: not shown
light 2: EVQLVESGGGLVQPGGSLRLSCAASGYTFTNYGMNWVRQAPGKGLEWVGWINTYTGEPTYAADFKRRFTFSLDTSKSTAYLQMNSLRAEDTAVYYCAKYPHYYGSSHWYFDVWGQGTLVTVSSASVAAPSVFIFPPSDEQLKSGTASVVCLLNNFYPREAKVQWKVDNALQSGNSQESVTEQDSKDSTYSLSSTLTLSKADYEKHKVYACEVTHQGLSSPVTKSFNRGEC
notes: as for B1
For B4, the Kd (human VEGFA-121-His) was 0.36 nM and the Kd (human Ang-2-RBD-Fc) was 3 nM.
